Tests used:
[1] = biological target: porcine brain tubulin dimers (porcine, UniProt P02550 1-451; Q767L7 1-444); test: BLI
[2] = biological target: microtubules polymerised from porcine brain tubulin (porcine), P02550; test: co-sedimentation
Chain of microtubules polymerised from porcine brain tubulin (porcine), P02550 (P02550 whole entry, chain 1 of 2): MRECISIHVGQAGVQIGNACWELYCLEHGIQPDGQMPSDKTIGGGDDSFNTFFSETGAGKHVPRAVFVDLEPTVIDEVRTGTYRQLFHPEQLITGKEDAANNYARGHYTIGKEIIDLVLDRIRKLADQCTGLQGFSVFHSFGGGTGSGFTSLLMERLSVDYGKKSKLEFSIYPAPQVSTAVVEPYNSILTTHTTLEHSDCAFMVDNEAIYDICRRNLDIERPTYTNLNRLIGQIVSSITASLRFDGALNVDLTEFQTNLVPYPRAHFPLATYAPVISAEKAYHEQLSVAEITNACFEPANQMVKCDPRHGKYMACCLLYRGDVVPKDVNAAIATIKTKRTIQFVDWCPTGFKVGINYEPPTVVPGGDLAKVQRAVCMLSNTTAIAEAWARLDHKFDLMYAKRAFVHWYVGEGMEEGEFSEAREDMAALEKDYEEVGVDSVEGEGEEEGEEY
Chain of microtubules polymerised from porcine brain tubulin (porcine), P02550 (P02554 whole entry, chain 2 of 2, further chain): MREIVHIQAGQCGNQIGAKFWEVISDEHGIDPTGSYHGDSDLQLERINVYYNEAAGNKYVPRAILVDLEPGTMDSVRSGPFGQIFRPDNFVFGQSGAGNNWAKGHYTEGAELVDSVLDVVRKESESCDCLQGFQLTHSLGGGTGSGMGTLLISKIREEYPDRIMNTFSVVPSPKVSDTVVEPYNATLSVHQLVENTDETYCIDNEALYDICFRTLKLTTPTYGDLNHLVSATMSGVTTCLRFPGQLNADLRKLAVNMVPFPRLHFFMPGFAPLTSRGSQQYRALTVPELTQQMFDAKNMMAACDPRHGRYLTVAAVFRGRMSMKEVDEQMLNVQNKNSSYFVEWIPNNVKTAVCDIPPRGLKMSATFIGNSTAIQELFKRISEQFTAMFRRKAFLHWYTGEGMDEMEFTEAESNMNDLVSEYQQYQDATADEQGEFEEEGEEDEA

| Binder | Kd [1] | Kd [2] |
| --- | --- | --- |
| 6XHis-557-C (Abl2-557-1182, C-terminal half) (domain or fragment, murine, UniProt Q4JIM5 557-1182, looked up) GRTASSSSVVPYLPRLPLLPSKTRTLRKQGENKENLDGGLDAAESLASSSAPAGFIRSTQASSGSPALPRKQRDKSPSSLLEDAKETCFTRDRKGGFFSSFMKKRNAPTPPKRSSSFREMENQPHKKYELTGNFSPVASLQNADGFSVAPSQQEPNLVPAKCYGGSFAQRNLCADDDSGGGGGSGTAGGGWSGITGFFTPRLIKKTLGLRAGKPTASDDTSKPFPRSNSTSSMSSGLPEQDRMAMTLPRNCQRSKLQLERTVSTSSQPEENVDRANDMLPKKSEEGAAPARERPKAKLLPRGATALPLRAPDPAITESDSPGVGVAGVAAAPKGKERNGGTRLGVAGVPEDGEQLGWSSPAKAVAVLPTTHNHKVPVLISPTLKHTPADVQLIGTDSQGNKFKLLSEHQVTSSGDKDRPRRVKPKCAPPPPPVMRLLQHPSTCSDPEEEPTAPPAGQHTPETQEGGKKAAPGPVPSSGKPGRPVMPPPQVPLPTSSISPAKMANGTAGTKVALRKTKQAAEKISADKISKEALLECADLLSSAITEPVPNSQLVDTGHQLLDYCSGYVDSIPQTRNKFAFREAVSKLELSLQELQVSSTAAGVPGTNPVLNNLLSCVQEISDVVQR | 17 ± 8 nM |  |
| 6XHis-1024-1090 (Abl2-1024-1090, site II) (domain or fragment, murine, UniProt Q4JIM5 1024-1090, looked up) KAAPGPVPSSGKPGRPVMPPPQVPLPTSSISPAKMANGTAGTKVALRKTKQAAEKISADKISKEALL | 252 ± 123 nM |  |
| Abl2Δ688-790-eGFP, Q4JIM5 74-1182 (natural protein) EVLHRPFGCDAESQALNEAIRWSSKENLLGATESDPNLFVALYDFVASGDNTLSITKGEKLRVLGYNQNGEWSEVRSKNGQGWVPSNYITPVNSLEKHSWYHGPVSRSAAEYLLSSLINGSFLVRESESSPGQLSISLRYEGRVYHYRINTTTDSKVYVTAESRFSTLAELVHHHSTVADGLVTTLHYPAPKCNKPTVYGVSPIHDKWEMERTDITMKHKLGGGQYGEVYVGVWKKYSLTVAVKTFKEDTMEVEEFLKEAAVMKEIKHPNLVQLLGVCTLEPPFYIVTEYMPYGNLLDYLRECSREEVTAVVLLYMATQISSAMEYLEKKNFIHRDLAARNCLVGENHVVKVADFGLSRLMTGDTYTAHAGAKFPIKWTAPESLAYNTFSIKSDVWAFGVLLWEIATYGMSPYPGIDLSQVYDLLEKGYRMEQPEGCPPKVYELMRACWKWSPADRPSFAETHQAFETMFHDSSISEEVAEELGRTASSSSVVPYLPRLPLLPSKTRTLRKQGENKENLDGGLDAAESLASSSAPAGFIRSTQASSGSPALPRKQRDKSPSSLLEDAKETCFTRDRKGGFFSSFMKKRNAPTPPKRSSSFREMENQPHKKYELTSGLPEQDRMAMTLPRNCQRSKLQLERTVSTSSQPEENVDRANDMLPKKSEEGAAPARERPKAKLLPRGATALPLRAPDPAITESDSPGVGVAGVAAAPKGKERNGGTRLGVAGVPEDGEQLGWSSPAKAVAVLPTTHNHKVPVLISPTLKHTPADVQLIGTDSQGNKFKLLSEHQVTSSGDKDRPRRVKPKCAPPPPPVMRLLQHPSTCSDPEEEPTAPPAGQHTPETQEGGKKAAPGPVPSSGKPGRPVMPPPQVPLPTSSISPAKMANGTAGTKVALRKTKQAAEKISADKISKEALLECADLLSSAITEPVPNSQLVDTGHQLLDYCSGYVDSIPQTRNKFAFREAVSKLELSLQELQVSSTAAGVPGTNPVLNNLLSCVQEISDVVQR |  | 400 nM |
| 6XHis-688-924 (Abl2-688-924, site I) (domain or fragment, murine, UniProt Q4JIM5 688-924, looked up) GNFSPVASLQNADGFSVAPSQQEPNLVPAKCYGGSFAQRNLCADDDSGGGGGSGTAGGGWSGITGFFTPRLIKKTLGLRAGKPTASDDTSKPFPRSNSTSSMSSGLPEQDRMAMTLPRNCQRSKLQLERTVSTSSQPEENVDRANDMLPKKSEEGAAPARERPKAKLLPRGATALPLRAPDPAITESDSPGVGVAGVAAAPKGKERNGGTRLGVAGVPEDGEQLGWSSPAKAVAVLP | 118 ± 39 nM |  |
| Abl2-eGFP, Q4JIM5 74-1182 (natural protein) EVLHRPFGCDAESQALNEAIRWSSKENLLGATESDPNLFVALYDFVASGDNTLSITKGEKLRVLGYNQNGEWSEVRSKNGQGWVPSNYITPVNSLEKHSWYHGPVSRSAAEYLLSSLINGSFLVRESESSPGQLSISLRYEGRVYHYRINTTTDSKVYVTAESRFSTLAELVHHHSTVADGLVTTLHYPAPKCNKPTVYGVSPIHDKWEMERTDITMKHKLGGGQYGEVYVGVWKKYSLTVAVKTFKEDTMEVEEFLKEAAVMKEIKHPNLVQLLGVCTLEPPFYIVTEYMPYGNLLDYLRECSREEVTAVVLLYMATQISSAMEYLEKKNFIHRDLAARNCLVGENHVVKVADFGLSRLMTGDTYTAHAGAKFPIKWTAPESLAYNTFSIKSDVWAFGVLLWEIATYGMSPYPGIDLSQVYDLLEKGYRMEQPEGCPPKVYELMRACWKWSPADRPSFAETHQAFETMFHDSSISEEVAEELGRTASSSSVVPYLPRLPLLPSKTRTLRKQGENKENLDGGLDAAESLASSSAPAGFIRSTQASSGSPALPRKQRDKSPSSLLEDAKETCFTRDRKGGFFSSFMKKRNAPTPPKRSSSFREMENQPHKKYELTGNFSPVASLQNADGFSVAPSQQEPNLVPAKCYGGSFAQRNLCADDDSGGGGGSGTAGGGWSGITGFFTPRLIKKTLGLRAGKPTASDDTSKPFPRSNSTSSMSSGLPEQDRMAMTLPRNCQRSKLQLERTVSTSSQPEENVDRANDMLPKKSEEGAAPARERPKAKLLPRGATALPLRAPDPAITESDSPGVGVAGVAAAPKGKERNGGTRLGVAGVPEDGEQLGWSSPAKAVAVLPTTHNHKVPVLISPTLKHTPADVQLIGTDSQGNKFKLLSEHQVTSSGDKDRPRRVKPKCAPPPPPVMRLLQHPSTCSDPEEEPTAPPAGQHTPETQEGGKKAAPGPVPSSGKPGRPVMPPPQVPLPTSSISPAKMANGTAGTKVALRKTKQAAEKISADKISKEALLECADLLSSAITEPVPNSQLVDTGHQLLDYCSGYVDSIPQTRNKFAFREAVSKLELSLQELQVSSTAAGVPGTNPVLNNLLSCVQEISDVVQR |  | 320 nM |

From article PMC10877310 (Current biology : CB, 2023)
